B1: Hairpin Ribozyme (parent)
chain: GUCCUCUUUCACGUGCGCGUGAAAGAGAGAAGUGAACCAGAGAAACACACGUUGUGGUAUAUUACCUGGUA

Self-cleavage data for 38 variants are collected here from the RNAGym collection of RNA variant scans (doi:10.7554/elife.80360).

The variants in the data set derive from B1. Kind of data set: self-cleavage, relative activity (ratio to wild type); higher = more cleavage; co-transcriptional.
In the case of GUCCUCUUUCACGUGCGAGUGAAAGAGAGAAGUGAACCACAGAAACACACGUUGUGGUAUAUUACCUGGUA [C18A G40C], the self-cleavage amounted to 0.0959. The same measure for GUCCUCUUUCACGUGCGCGUGAAAGAGAGAAGUGAACCCGAGAAACACACGUUGUGGUAUAAUACCUGGUA [A39C U62A]: 0.159; for GUCCUCUUUCACGUGCGCGUGAAAGAGAGAAGUGAACCAGAGAUACACACGUUGUGGUACAUUACCUGGUA [A44U U60C]: 0.103; for GUCCGCUUUCACGUGCGCGUGAAAGAGAGAAGUGAACAAGAGAAACACACGUUGUGGUAUAUUACCUGGUA [U5G C38A]: 0.12.

Regarding GUCCUCUUUCACGUGUUCGUGAAAGAGAGAAGUGAACCAGAGAAACACACGUUGUGGUAUAUUACCUGGUA [C16U G17U], the self-cleavage was found to be 0.92. In the case of GUCCUCUAUCACGUGCGCGUGAAAGAGAGAAGUGAACCAGAGAAACACACGUUGCGGUAUAUUACCUGGUA [U8A U55C], the self-cleavage came out at 0.322. The result for GUCGUCUUUCACGUGCGCGUGAAAGAGAGAAGUGAACCAGAGAAACAAACGUUGUGGUAUAUUACCUGGUA [C4G C48A] reads 0.151. The result for GUCCUCUUUCACGUGCGCGUCAAAGAGAGAAGUGAACCACAGAAACACACGUUGUGGUAUAUUACCUGGUA [G21C G40C] reads 0.0941; that for GUCUUCUUUCACGUGCGCGUGAAAGAGAGAAGUGAACCAGAGAAACACACGUUGUGGUAUAGUACCUGGUA [C4U U62G], 0.181.

GUCCUCUUUCACGUGCGCGUGAAAGAGAGAAGUGAACCAGAGAAAAACACGUUGUUGUAUAUUACCUGGUA [C46A G56U]: the self-cleavage came to 0.077. In the case of GUCAUCUUUCAGGUGCGCGUGAAAGAGAGAAGUGAACCAGAGAAACACACGUUGUGGUAUAUUACCUGGUA [C4A C12G], the self-cleavage turned out to be 0.245. As to GUCCUCUUUCACGUGCGCGUGAAAGAGAGAAGUGAACCAGAGAAACACACGUUGUGGUACAAUACCUGGUA [U60C U62A], the self-cleavage was found to be 0.253. The same measure for GUCCUCUAUCACGUGCGCGUGAAAGAGAGAAGUGAACCAGAGAAACACACGUUGUGGUAUUUUACCUGGUA [U8A A61U]: 0.191; for GUCCUCUUUAACGUGCGCGUGAAAGAGAGAAGUGCACCAGAGAAACACACGUUGUGGUAUAUUACCUGGUA [C10A A35C]: 0.846; for GUCCUCUUUCACGUGCGCGUGAAAGAGAGAAGUGGACCAGAGAAACACACGUUGUGGUAUAUUACCUGGUC [A35G A71C]: 1.16. As to AUCCUCUUUCACGUGCGCGUGAAAGAGAGAAGUGAACCAGAGAAACACACGUUGUGGUAUAUUACCAGGUA [G1A U67A], the self-cleavage stood at 0.193. The result for GUCCACUUUCACGUGCGCGUGAAAGAGAGAAGUGAACCUGAGAAACACACGUUGUGGUAUAUUACCUGGUA [U5A A39U] reads 0.0927; that for GUCCUCUUUCACGUGCGCGUGAAAGAGUGAAGUGAACCAGAAAAACACACGUUGUGGUAUAUUACCUGGUA [A28U G42A], 0.167. The same measure for GUCCUCUUUCACGUGCGCGUGAAAGAGAGUAGGGAACCAGAGAAACACACGUUGUGGUAUAUUACCUGGUA [A30U U33G]: 0.138.

Take GUCCUCUUUCACGUGCGCGUGUAAGAGAGAAGUGAACCAGAGAAACACACGUUUUGGUAUAUUACCUGGUA [A22U G54U]: the self-cleavage worked out at 0.518. Consider GUCCUCUUUCACGUGCGCGUGAAUGAGAGUAGUGAACCAGAGAAACACACGUUGUGGUAUAUUACCUGGUA [A24U A30U], for which the self-cleavage was 0.168. In the case of GUCCUCUUUCACGUGCGCGUGAAAGUGAGAAGUUAACCAGAGAAACACACGUUGUGGUAUAUUACCUGGUA [A26U G34U], the self-cleavage turned out to be 1.37. The same measure for GUCCUCUUUCACGUGCGCGUGAAAGAGAGAAGUGAACCAGAGAAACACACGUUGUGGUAUAUUAGCUGGGA [C65G U70G]: 0.19. The result for GUCCUCUUUCACGUGCGCGUGAAAGAGAGAAGUGAACCAGAGAAACACAAGUUGUUGUAUAUUACCUGGUA [C50A G56U] reads 0.274. The same measure for GUCCUCUUUCACGUGCGCGUGAAAGAGACAAGUGAACCAGAGAAACACAUGUUGUGGUAUAUUACCUGGUA [G29C C50U]: 0.144; for GUCCUCUGUCUCGUGCGCGUGAAAGAGAGAAGUGAACCAGAGAAACACACGUUGUGGUAUAUUACCUGGUA [U8G A11U]: 0.67; for GUCCUCUUUCACGUGAGCGUGAAAGAGAGAAGUGAACCAGAGAAACACACCUUGUGGUAUAUUACCUGGUA [C16A G51C]: 0.714. Consider GUCCUCUUUCACGUGCGCGUGAAAGACAGAAGUGAACCAGAGUAACACACGUUGUGGUAUAUUACCUGGUA [G27C A43U], for which the self-cleavage came out at 0.151. The result for GUCCCCUUUCACGUGCGCGUGAAAGAGAGAAGUGAACCAGAGAAACACACGUUGUAGUAUAUUACCUGGUA [U5C G56A] reads 0.107. The result for GUCCUCUUUCACGAGCGCGUGAAAGAGAGAAGUGAACCAGAGAAACACACGUUGUGGUAUAUUACCUGCUA [U14A G69C] reads 0.337; that for GUCCUCUUUCACGUGCGCGUGCAAGAGAGAAGUGAACCAGAGAAACAUACGUUGUGGUAUAUUACCUGGUA [A22C C48U], 0.235; that for GUCCUCUUUCACGUGCGCGUGAAAGAGAGGAGUGAACCAGAGAAGCACACGUUGUGGUAUAUUACCUGGUA [A30G A45G], 0.17. The same measure for GGCCUCUUUCACGUGCGCGUGAAAGAGAGAAGUGAACCAGAGAACCACACGUUGUGGUAUAUUACCUGGUA [U2G A45C]: 0.0592.

As to AUCCUCUUUCACGUGCGCGUGAAAGAGAGAAGUGAACCAGAGAAACACACGUUGUGGUAUUUUACCUGGUA [G1A A61U], the self-cleavage worked out at 0.0641. Regarding GUCCUCAUUCACGUGCGCGUGAAAGGGAGAAGUGAACCAGAGAAACACACGUUGUGGUAUAUUACCUGGUA [U7A A26G], the self-cleavage was found to be 0.71. With GUCCUCUUUCACGUGCGCGUGAAAGAGAGAAUUGACCCAGAGAAACACACGUUGUGGUAUAUUACCUGGUA [G32U A36C], the self-cleavage stood at 0.1. For GUCCUCUUUCACGUGCGCGUGAAAGAUAGAAGUGAACCAGAGAAACACACGUUGUGGUAUAUUACCUCGUA [G27U G68C], the self-cleavage worked out at 0.102. The same measure for GUCAUCUUUCACGUGCGCGUGAAAGAGAGAAGUGAACCAGAGAAACACACGUUGUGUUAUAUUACCUGGUA [C4A G57U]: 0.169.
